This note sets out measurements from PMC8278493, “Structure of the TELO2-TTI1-TTI2 complex and its function in TOR recruitment to the R2TP chaperone” (Cell Reports, 2021).

The labels stand for the following.
B1: S. cerevisiae Rvb1p-Rvb2p complex (complex)
chain 1: MVAISEVKENPGVNSSNSGAVTRTAAHTHIKGLGLDESGVAKRVEGGFVGQIEAREACGVIVDLIKAKKMSGRAILLAGGPSTGKTALALAISQELGPKVPFCPLVGSELYSVEVKKTETLMENFRRAIGLRIKETKEVYEGEVTELTPEDAENPLGGYGKTISHVIVGLKSAKGTKTLRLDPTIYESIQREKVSIGDVIYIEANTGAVKRVGRSDAYATEFDLETEEYVPLPKGEVHKKKEIVQDVTLHDLDVANARPQGGQDVISMMGQLLKPKKTEITEKLRQEVNKVVAKYIDQGVAELIPGVLFIDEVNMLDIEIFTYLNKALESNIAPVVVLASNRGMTTVRGTEDVISPHGVPPDLIDRLLIVRTLPYDKDEIRTIIERRATVERLQVESSALDLLATMGTETSLRYALQLLAPCGILAQTSNRKEIVVNDVNEAKLLFLDAKRSTKILETSANYL
chain 2: MSIQTSDPNETSDLKSLSLIAAHSHITGLGLDENLQPRPTSEGMVGQLQARRAAGVILKMVQNGTIAGRAVLVAGPPSTGKTALAMGVSQSLGKDVPFTAIAGSEIFSLELSKTEALTQAFRKSIGIKIKEETELIEGEVVEIQIDRSITGGHKQGKLTIKTTDMETIYELGNKMIDGLTKEKVLAGDVISIDKASGKITKLGRSFARSRDYDAMGADTRFVQCPEGELQKRKTVVHTVSLHEIDVINSRTQGFLALFTGDTGEIRSEVRDQINTKVAEWKEEGKAEIVPGVLFIDEVHMLDIECFSFINRALEDEFAPIVMMATNRGVSKTRGTNYKSPHGLPLDLLDRSIIITTKSYNEQEIKTILSIRAQEEEVELSSDALDLLTKTGVETSLRYSSNLISVAQQIAMKRKNNTVEVEDVKRAYLLFLDSARSVKYVQENESQYIDDQGNVQISIAKSADPDAMDTTE
notes: Rvb1p, Saccharomyces cerevisiae; Rvb2p, Saccharomyces cerevisiae; also called yR2; R2; source: expressed and purified as previously described (Rivera-Calzada et al., 2017); copies: 3 + 3
B2: human TTI2 (as in the purified TTT complex) (natural protein, UniProt Q6NXR4 1-508, looked up)
chain: MELDSALEAPSQEDSNLSEELSHSAFGQAFSKILHCLARPEARRGNVKDAVLKDLGDLIEATEFDRLFEGTGARLRGMPETLGQVAKALEKYAAPSKEEEGGGDGHSEAAEKAAQVGLLFLKLLGKVETAKNSLVGPAWQTGLHHLAGPVYIFAITHSLEQPWTTPRSREVAREVLTSLLQVTECGSVAGFLHGENEDEKGRLSVILGLLKPDLYKESWKNNPAIKHVFSWTLQQVTRPWLSQHLERVLPASLVISDDYQTENKILGVHCLHHIVLNVPAADLLQYNRAQVLYHAISNHLYTPEHHLIQAVLLCLLDLFPILEKTLHWKGDGARPTTHCDEVLRLILTHMEPEHRLLLRRTYARNLPAFVNRLGILTVRHLKRLERVIIGYLEVYDGPEEEARLKILETLKLLMQHTWPRVSCRLVVLLKALLKLICDVARDPNLTPESVKSALLQEATDCLILLDRCSQGRVKGLLAKIPQSCEDRKVVNYIRKVQQVSEGAPYNGT
notes: TTI2, human, 508 residues; In PDB 7OLE TTI2 is modelled as poly-alanine helices only; source: Sf9, purified within TTT
B3: S. cerevisiae Tah1p-Pih1p complex with a tandem strep-tag on the N terminus of Tah1p (complex)
chain 1: MSQFEKQKEQGNSLFKQGLYREAVHCYDQLITAQPQNPVGYSNKAMALIKLGEYTQAIQMCQQGLRYTSTAEHVAIRSKLQYRLELAQGAVGSVQIPVVEVDELPEGYDRS
chain 2: MADFLLRPIKQRHRNEDKYVSVDAADGSVSKIEPIADFVIKTKLLSANGPEKLQDGRKVFINVCHSPLVPKPEVDFNARIVFPLIIQNEWEIPIITSCYRMDHDKKGQECYVWDCCINSDCSRWICDDIQLREILVEWCLESCEIRDSVVLCRDRIAFPKMKKKGAELPALEVLNDELHQDYKAKMHKIIEEEAGDPMSILRGRNDDGDDNNDPDDGTLPPLFPIENKISGAKIEEIDKNEIAHRNLKQAPAPAPAPHEQQEDVPEYEVKMKRFKGAAYKLRILIENKAPNSKPDRFSPSYNFAENILYINGKLSIPLPRDIVVNAADIKIFHIRKERTLYIYI
notes: Tah1p, Saccharomyces cerevisiae; Pih1p, Saccharomyces cerevisiae; also called yTP; TP; source: expressed and purified as previously described (Rivera-Calzada et al., 2017); not shown: tandem Strep, N-terminal, kept
B4: human TELO2 (as in the purified TTT complex) (natural protein, UniProt Q9Y4R8 1-837, looked up)
chain: MEPAPSEVRLAVREAIHALSSSEDGGHIFCTLESLKRYLGEMEPPALPREKEEFASAHFSPVLRCLASRLSPAWLELLPHGRLEELWASFFLEGPADQAFLVLMETIEGAAGPSFRLMKMARLLARFLREGRLAVLMEAQCRQQTQPGFILLRETLLGKVVALPDHLGNRLQQENLAEFFPQNYFRLLGEEVVRVLQAVVDSLQGGLDSSVSFVSQVLGKACVHGRQQEILGVLVPRLAALTQGSYLHQRVCWRLVEQVPDRAMEAVLTGLVEAALGPEVLSRLLGNLVVKNKKAQFVMTQKLLFLQSRLTTPMLQSLLGHLAMDSQRRPLLLQVLKELLETWGSSSAIRHTPLPQQRHVSKAVLICLAQLGEPELRDSRDELLASMMAGVKCRLDSSLPPVRRLGMIVAEVVSARIHPEGPPLKFQYEEDELSLELLALASPQPAGDGASEAGTSLVPATAEPPAETPAEIVDGGVPQAQLAGSDSDLDSDDEFVPYDMSGDRELKSSKAPAYVRDCVEALTTSEDIERWEAALRALEGLVYRSPTATREVSVELAKVLLHLEEKTCVVGFAGLRQRALVAVTVTDPAPVADYLTSQFYALNYSLRQRMDILDVLTLAAQELSRPGCLGRTPQPGSPSPNTPCLPEAAVSQPGSAVASDWRVVVEERIRSKTQRLSKGGPRQGPAGSPSRFNSVAGHFFFPLLQRFDRPLVTFDLLGEDQLVLGRLAHTLGALMCLAVNTTVAVAMGKALLEFVWALRFHIDAYVRQGLLSAVSSVLLSLPAARLLEDLMDELLEARSWLADVAEKDPDEDCRTLALRALLLLQRLKNRLLPPASP
notes: TELO2, human; Only the N-terminal domain (TELO2-N) is seen in the map; source: Sf9, purified within TTT; not shown: GST, N-terminal, cleaved
B5: human GST-TELO2 (natural protein, UniProt Q9Y4R8 1-837, looked up)
chain: B4 chain
notes: TELO2, human; The tagged subunit of m4, as the bait with which TTI1-TTI2 is found; also called GST-TEL2; not shown: GST, N-terminal, kept

Common to all, as to settings: both partners purified
In test [1] the target is T1, S. cerevisiae TTT complex in which Tti1p carries a C-terminal FLAG-tag (S. cerevisiae, UniProt P53038 1-688; P36097 1-1038; P47168 1-421).
T1 construct: Tel2p, Saccharomyces cerevisiae; Tti1p, Saccharomyces cerevisiae; Tti2p, Saccharomyces cerevisiae; The cloning of the FLAG-tagged Tti1p is not described in the methods; also called FLAG-tagged TTT; FLAG-tagged Tti1p; source: Sf9, purified; not shown: FLAG, C-terminal, kept; copies: + +
T1 sequence (P53038 whole entry, chain 1 of 3): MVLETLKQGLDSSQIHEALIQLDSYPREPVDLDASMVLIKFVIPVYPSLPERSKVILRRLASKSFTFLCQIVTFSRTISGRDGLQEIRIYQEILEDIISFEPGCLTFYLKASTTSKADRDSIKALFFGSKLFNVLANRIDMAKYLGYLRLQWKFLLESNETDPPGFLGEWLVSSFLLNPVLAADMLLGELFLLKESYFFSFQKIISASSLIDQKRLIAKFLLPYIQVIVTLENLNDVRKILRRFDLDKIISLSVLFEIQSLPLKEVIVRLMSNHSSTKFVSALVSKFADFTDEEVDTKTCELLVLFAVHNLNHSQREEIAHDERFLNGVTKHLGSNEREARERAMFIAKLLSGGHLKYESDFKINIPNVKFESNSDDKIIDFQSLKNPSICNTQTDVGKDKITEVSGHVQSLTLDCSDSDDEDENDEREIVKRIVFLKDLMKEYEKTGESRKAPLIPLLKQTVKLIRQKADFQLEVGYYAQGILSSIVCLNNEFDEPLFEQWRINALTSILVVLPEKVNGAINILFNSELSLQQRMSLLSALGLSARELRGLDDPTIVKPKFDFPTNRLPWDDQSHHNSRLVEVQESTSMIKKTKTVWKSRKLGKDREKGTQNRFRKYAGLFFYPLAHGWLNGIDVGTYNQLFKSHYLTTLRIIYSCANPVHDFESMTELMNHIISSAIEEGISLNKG
T1 sequence (P36097 whole entry, chain 2 of 3): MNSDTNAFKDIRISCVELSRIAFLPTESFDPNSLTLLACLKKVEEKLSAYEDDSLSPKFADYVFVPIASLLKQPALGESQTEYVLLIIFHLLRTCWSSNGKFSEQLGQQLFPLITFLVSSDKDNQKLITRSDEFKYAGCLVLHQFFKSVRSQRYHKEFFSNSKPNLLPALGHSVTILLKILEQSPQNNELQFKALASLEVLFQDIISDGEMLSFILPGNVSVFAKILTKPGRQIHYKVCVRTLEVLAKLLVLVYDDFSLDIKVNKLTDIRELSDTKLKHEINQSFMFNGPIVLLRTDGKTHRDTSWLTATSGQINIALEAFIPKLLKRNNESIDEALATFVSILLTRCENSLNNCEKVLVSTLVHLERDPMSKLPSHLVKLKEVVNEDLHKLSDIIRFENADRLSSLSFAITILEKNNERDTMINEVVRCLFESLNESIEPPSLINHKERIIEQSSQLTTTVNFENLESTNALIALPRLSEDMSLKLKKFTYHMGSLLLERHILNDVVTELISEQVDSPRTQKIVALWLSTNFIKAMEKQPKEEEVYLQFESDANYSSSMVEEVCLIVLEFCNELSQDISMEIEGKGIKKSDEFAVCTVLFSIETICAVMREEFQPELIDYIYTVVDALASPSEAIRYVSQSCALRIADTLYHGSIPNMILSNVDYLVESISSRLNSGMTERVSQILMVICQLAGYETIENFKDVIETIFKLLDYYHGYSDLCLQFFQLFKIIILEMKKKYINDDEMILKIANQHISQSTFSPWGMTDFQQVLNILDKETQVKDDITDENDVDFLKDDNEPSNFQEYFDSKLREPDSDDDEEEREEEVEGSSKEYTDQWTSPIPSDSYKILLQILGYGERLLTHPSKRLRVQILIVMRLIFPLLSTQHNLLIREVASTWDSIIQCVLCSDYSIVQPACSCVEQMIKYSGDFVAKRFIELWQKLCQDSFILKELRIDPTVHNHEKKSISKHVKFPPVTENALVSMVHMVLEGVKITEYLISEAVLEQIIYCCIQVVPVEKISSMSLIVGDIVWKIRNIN
T1 sequence (P47168 whole entry, chain 3 of 3): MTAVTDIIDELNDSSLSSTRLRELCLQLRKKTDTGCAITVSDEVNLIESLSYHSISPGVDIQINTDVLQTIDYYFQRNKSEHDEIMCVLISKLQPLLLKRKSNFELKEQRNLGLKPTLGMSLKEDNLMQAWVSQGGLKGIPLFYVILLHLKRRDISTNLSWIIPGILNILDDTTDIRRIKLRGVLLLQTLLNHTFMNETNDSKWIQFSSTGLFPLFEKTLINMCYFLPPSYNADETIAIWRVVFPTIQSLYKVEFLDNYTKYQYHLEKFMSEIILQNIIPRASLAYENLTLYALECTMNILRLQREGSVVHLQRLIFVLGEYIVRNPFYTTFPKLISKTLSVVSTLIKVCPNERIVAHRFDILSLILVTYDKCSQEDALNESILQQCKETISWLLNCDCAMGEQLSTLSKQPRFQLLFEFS
In words: co-IP; anti-FLAG beads hold yeast TTT by FLAG-tagged Tti1p; purified KmTOR-KmLst8, with or without yeast R2; Coomassie-stained SDS-PAGE.

Test [2] deals with T2, human TTI1, full length, untagged (human, UniProt O43156 1-1089).
T2 construct: TTI1, human, 1089 residues; In PDB 7OLE TTI1 is modelled as poly-alanine helices only; also called full-length untagged TTI1; source: Sf9, co-expressed with GST-TTI2 constructs (in lysate); co-expressed with TTI2 and TELO2 and purified within TTT
T2 sequence (O43156 whole entry): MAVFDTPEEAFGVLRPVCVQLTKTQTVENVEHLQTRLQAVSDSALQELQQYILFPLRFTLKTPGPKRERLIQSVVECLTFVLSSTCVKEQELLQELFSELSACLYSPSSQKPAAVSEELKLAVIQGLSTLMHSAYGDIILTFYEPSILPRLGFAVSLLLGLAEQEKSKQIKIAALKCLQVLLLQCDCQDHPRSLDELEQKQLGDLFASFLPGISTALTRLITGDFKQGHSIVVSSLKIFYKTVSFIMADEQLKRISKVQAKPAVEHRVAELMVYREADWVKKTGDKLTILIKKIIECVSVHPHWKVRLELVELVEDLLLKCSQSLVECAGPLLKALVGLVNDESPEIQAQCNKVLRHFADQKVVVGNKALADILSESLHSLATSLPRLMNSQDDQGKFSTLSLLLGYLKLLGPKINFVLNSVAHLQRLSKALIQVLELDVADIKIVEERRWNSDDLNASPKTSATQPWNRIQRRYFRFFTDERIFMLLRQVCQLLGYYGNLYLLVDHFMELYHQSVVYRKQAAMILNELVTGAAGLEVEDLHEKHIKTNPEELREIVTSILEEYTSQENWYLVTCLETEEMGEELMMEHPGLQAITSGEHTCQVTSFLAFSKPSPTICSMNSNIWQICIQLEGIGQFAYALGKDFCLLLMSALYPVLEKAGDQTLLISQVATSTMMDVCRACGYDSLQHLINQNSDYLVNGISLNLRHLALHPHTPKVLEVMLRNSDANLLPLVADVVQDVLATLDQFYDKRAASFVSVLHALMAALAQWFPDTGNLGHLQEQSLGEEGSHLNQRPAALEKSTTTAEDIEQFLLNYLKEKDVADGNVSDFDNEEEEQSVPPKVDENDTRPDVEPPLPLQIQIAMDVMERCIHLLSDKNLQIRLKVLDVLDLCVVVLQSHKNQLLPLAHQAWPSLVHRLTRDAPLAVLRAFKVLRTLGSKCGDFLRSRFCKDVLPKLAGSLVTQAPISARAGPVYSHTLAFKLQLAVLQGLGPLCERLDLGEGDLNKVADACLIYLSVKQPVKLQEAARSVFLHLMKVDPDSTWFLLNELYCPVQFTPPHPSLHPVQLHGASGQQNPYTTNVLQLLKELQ
In words: cryo-EM structure; human R2 saturated with an excess of TTT; symmetry expansion and multi-body refinement; ADP in all six sites.

The target in test [3] is B1. In words: pull-down; strep beads hold the tandem strep-tag on Tah1p in yeast TP or R2TP; 20 mM HEPES pH 7.85, 140 mM NaCl, 0.5 mM TCEP, 0.03% CHAPS; 45 min at 4°C; Coomassie-stained SDS-PAGE.
The target of test [4] is T3, S. cerevisiae Tel2p-Tti1p-Tti2p complex (S. cerevisiae, UniProt P53038 1-688; P36097 1-1038; P47168 1-421).
T3 construct: Tel2p, Saccharomyces cerevisiae; Tti1p, Saccharomyces cerevisiae; Tti2p, Saccharomyces cerevisiae; Purified from insect cells to ensure post-translational modifications on Tel2p; The methods say in general that the GST-tag was cleaved; also called yTTT; yeast TTT; source: Sf9, co-infected with Tti1p-Tti2p and Tel2p viruses, purified; copies: + +
T3 sequence (P53038 whole entry, chain 1 of 3): as the sequence (P53038 whole entry, chain 1 of 3) above
T3 sequence (P36097 whole entry, chain 2 of 3): as the sequence (P36097 whole entry, chain 2 of 3) above
T3 sequence (P47168 whole entry, chain 3 of 3): as the sequence (P47168 whole entry, chain 3 of 3) above
Described as above.

Test [5] deals with T4, human TTI1-TTI2 subcomplex (human, UniProt O43156 1-1089; Q6NXR4 1-508).
T4 construct: TTI1, human, 1089 residues; TTI2, human, 508 residues; Cloned as TTI1 and GST-TTI2; the methods name both a cleavage of the GST-tag and GST-TTI2-TTI1 as a sample of the pull-downs; also called T2; source: Sf9, co-expressed, purified
T4 sequence (O43156 whole entry, one chain of several): as the sequence (O43156 whole entry) above
The test is described as follows: pull-down; GST beads hold the GST-tag on TELO2 (5 μM); 2 μM RUVBL1/2, RUVBL1/2ΔDII or isolated DII domains; 20 mM HEPES pH 7.85, 140 mM NaCl, 0.001% Tween 20; 45 min at 4°C; Coomassie-stained SDS-PAGE.

On to B1, for which the binding result in test [1] was “binds”. B2: the binding result in test [2] is “binds”.

For the molecule B3, the binding result in test [3] and in test [4] was “binds” throughout. As for B4, the binding result in test [2] is “binds”. As to B5, the binding result in test [5] is recorded as “binds”.
